Non-standard residues stand in square brackets, D forms with d. Groups on a side chain read outwards from the residue. *: point of attachment. Chol = cholesteryl, CC(C)CCC[C@@H](C)[C@H]1CC[C@H]2[C@@H]3CC=C4C[C@@H](*)CC[C@]4(C)[C@H]3CC[C@]12C; Benzenesulfonyl(4-tBu) = CC(C)(C)c1ccc(S(=O)(=O)*)cc1; 2,4,6‑trimethylbenzoyl = Cc1cc(C)c(C(=O)*)c(C)c1; Benzenesulfonyl(4-OMe) = COc1ccc(S(=O)(=O)*)cc1; 4‑(Br)‑2‑(Me)PhSO2 = Cc1cc(Br)ccc1S(=O)(=O)*; 4‑(i-Pr)PhSO2 = CC(C)c1ccc(S(=O)(=O)*)cc1; Benzoyl(4-tBu) = CC(C)(C)c1ccc(C(=O)*)cc1; 4‑(n-Pr)PhSO2 = CCCc1ccc(S(=O)(=O)*)cc1; Phe(3-F) = N[C@@H](Cc1cccc(F)c1)C(=O)O; Benzoyl(4-Br) = O=C(c1ccc(Br)cc1)*; 2Naphthoyl = O=C(c1ccc2ccccc2c1)*; Benzoyl(4-Me) = Cc1ccc(C(=O)*)cc1; Brosyl = O=S(=O)(c1ccc(Br)cc1)*; Ahx = NCCCCCC(=O)O
The binders below were run against T1, Beta Transducin repeat-containing protein (βTrCP), tag cleaved and complexed with Skp1 (UniProt Q9Y297 175-605; P63208 1-163) (assay: FP competition dose-response, fluorescein-IkB peptide tracer on βTrCP/Skp1 (average Ki; assay not given)).
T1 construct: the FP protocol says that Ki is determined from FP dose-response curves; also called βTrCP/Skp1
T1 sequence (Q9Y297 175-605, chain 1 of 2): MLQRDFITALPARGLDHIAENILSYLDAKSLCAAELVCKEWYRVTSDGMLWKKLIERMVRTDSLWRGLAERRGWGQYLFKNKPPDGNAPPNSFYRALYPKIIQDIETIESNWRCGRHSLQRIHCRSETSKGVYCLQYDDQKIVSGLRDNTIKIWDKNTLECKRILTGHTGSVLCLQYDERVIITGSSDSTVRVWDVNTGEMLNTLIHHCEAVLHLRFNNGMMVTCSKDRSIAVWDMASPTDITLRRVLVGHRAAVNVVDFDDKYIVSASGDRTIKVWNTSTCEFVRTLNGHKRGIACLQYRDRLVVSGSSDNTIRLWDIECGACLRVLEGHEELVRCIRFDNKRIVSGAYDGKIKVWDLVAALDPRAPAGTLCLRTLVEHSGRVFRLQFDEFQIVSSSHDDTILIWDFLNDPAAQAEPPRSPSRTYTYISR
T1 sequence (P63208 whole entry, chain 2 of 2): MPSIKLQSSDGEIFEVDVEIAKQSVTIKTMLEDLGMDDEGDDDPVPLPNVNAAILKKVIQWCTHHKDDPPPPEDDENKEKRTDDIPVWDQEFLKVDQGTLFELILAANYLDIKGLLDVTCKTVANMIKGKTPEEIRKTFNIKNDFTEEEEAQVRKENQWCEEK

Binder | Ki
{2,4‑(Br)2‑PhSO2}-[dD]EG[Phe(3-F)]WE-NH2 (also called UBP049) [2,4-(Br)2-PhSO2-dEGF(3F)WE-NH2] | 45.3 nM
{Benzenesulfonyl(4-OMe)}-[dD]EG[Phe(3-F)]WE[Ahx]K(4‑isopropylphenylsulfonyl)-NH2 (also called UBP072) [4-(MeO)PhSO2-dEGF(3F)WE-Ahx-K(NHSO2-(4-i-Pr)-Ph))-NH2] | 12.9 nM
{Benzenesulfonyl(4-OMe)}-[dD]EG[Phe(3-F)]WE[Ahx]K(4‑n‑propylphenylsulfonyl)-NH2 (also called UBP074) [4-(MeO)PhSO2-dEGF(3F)WE-Ahx-K(NHSO2-(4-(n-Pr)-Ph)-NH2] | 28.6 nM
{2‑Naph‑SO2}-[dD]EG[Phe(3-F)]WE-NH2 (also called UBP044) [2-Naph-SO2-dEGF(3F)WE-NH2] | 5.81 nM
{Benzenesulfonyl(4-OMe)}-[dD]EG[Phe(3-F)]WE[Ahx]K(phenylsulfonyl)-NH2 (also called UBP073) [4-(MeO)PhSO2-dEGF(3F)WE-Ahx-K(NHSO2Ph)-NH2] | 13 nM
{3,5‑(CH3)2‑PhSO2}-[dD]EG[Phe(3-F)]WE-NH2 (also called UBP050) [3,5-(CH3)2-PhSO2-dEGF(3F)WE-NH2] | 24.6 nM
{2,4‑(Cl)2‑PhSO2}-[dD]EG[Phe(3-F)]WE-NH2 (also called UBP048) [2,4-(Cl)2-PhSO2-dEGF(3F)WE-NH2] | 27 nM

Now from value to binder:

Ki | Binder
2.52 nM | {4‑Br‑PhSO2}-[dD]EG[Phe(3-F)]WE-NH2 (also called UBP042) [4-Br-PhSO2-dEGF(3F)WE-NH2]
9.45 nM | {4‑CF3‑PhSO2}-[dD]EG[Phe(3-F)]WE-NH2 (also called UBP047) [4-CF3-PhSO2-dEGF(3F)WE-NH2]
3.96 nM | {4‑Br‑2‑CH3‑PhSO2}-[dD]EG[Phe(3-F)]WE-NH2 (also called UBP043) [4-Br-2-CH3-PhSO2-dEGF(3F)WE-NH2]
4.77 nM | {4‑OCF3‑PhSO2}-[dD]EG[Phe(3-F)]WE-NH2 (also called UBP045) [4-OCF3-PhSO2-dEGF(3F)WE-NH2]
253 nM | {4‑I‑PhSO2}-[dD]EG[Phe(3-F)]WE-NH2 (also called UBP052) [4-I-PhSO2-dEGF(3F)WE-NH2]
1.77 nM | {4‑Pr‑PhSO2}-[dD]EG[Phe(3-F)]WE-NH2 (also called UBP041) [4-Pr-PhSO2-dEGF(3F)WE-NH2]
1.6 nM | {4‑i‑Pr‑PhSO2}-[dD]EG[Phe(3-F)]WE-NH2 (also called UBP040) [4-i-Pr-PhSO2-dEGF(3F)WE-NH2]
330 nM | {4‑Cl‑PhSO2}-[dD]EG[Phe(3-F)]WE-NH2 (also called UBP053) [4-Cl-PhSO2-dEGF(3F)WE-NH2]
14.2 nM | {4‑Br‑3‑CF3‑PhSO2}-[dD]EG[Phe(3-F)]WE-NH2 (also called UBP046) [4-Br-3-CF3-PhSO2-dEGF(3F)WE-NH2]
110 nM | {4‑Br‑2‑OCF3‑PhSO2}-[dD]EG[Phe(3-F)]WE-NH2 (also called UBP051) [4-Br-2-OCF3-PhSO2-dEGF(3F)WE-NH2]

What follows are binders tested against T2, βTrCP (tag cleaved and complexed with Skp1) (UniProt Q9Y297 175-605; P63208 1-163) (assay: fluorescence polarisation assay; the column head does not say whether IC50 or Ki).
T2 construct: Protein of the fluorescence polarisation assay, 0.035 µM; also called Beta Transducin repeat-containing protein; βTrCP/Skp1
T2 sequence (Q9Y297 175-605, chain 1 of 2): as the sequence (Q9Y297 175-605, chain 1 of 2) above
T2 sequence (P63208 whole entry, chain 2 of 2): as the sequence (P63208 whole entry, chain 2 of 2) above
Description: Assay components (without compound) were premixed in a microcentrifuge tube and incubated for 1 hour to ensure equilibrium was achieved. Each compound was then added to one tube, mixed by vortexing, and then dispensed into 3 wells of a black 384-well plate and incubated for 30 minutes. Fluorescence polarization was then read (excitation 485 nm, emission 530 nm) using an Analyst-AD from Molecular Devices.
Binding of the compounds to βTrCP was assessed using a fluorescence polarisation (FP) binding assay. The FP assay is an in vitro binding assay using a fluorescein-tagged IkB peptide at 10 nM to mimic substrate binding to βTrCP, and was performed as described above.

Binder | FP Assay /
{4‑(Br)‑2‑(Me)PhSO2}-[dD]EG[Phe(3-F)]WE[Ahx]K(2,4,6‑trimethylbenzoyl)-NH2 (Round II CPP; also called UBP096) [4-(Br)-2-(Me)PhSO2-dEGF(3F)WE-Ahx-K(CO((2,4,6-Me3)Ph))-NH2] | 114 nM
{4‑(Br)‑2‑(Me)PhSO2}-[dD]EG[Phe(3-F)]WE[Ahx]K(Benzoyl(4-Me))-NH2 (Round II CPP; also called UBP097) [4-(Br)-2-(Me)PhSO2-dEGF(3F)WE-Ahx-K(CO((4-Me)Ph))-NH2] | 114 nM
{4‑(Br)‑2‑(Me)PhSO2}-[dD]EG[Phe(3-F)]WE[Ahx]K(Benzoyl(4-tBu))-NH2 (Round II CPP; also called UBP094) [4-(Br)-2-(Me)PhSO2-dEGF(3F)WE-Ahx-K(CO((4-tBu)Ph))-NH2] | 142 nM
Brosyl-[dD]EG[Phe(3-F)]WE[Ahx]K(Benzoyl(4-tBu))-NH2 (Round II CPP; also called UBP089) [4-(Br)PhSO2-dEGF(3F)WE-Ahx-K(CO((4-tBu)Ph))-NH2] | 305 nM
{4‑(Br)‑2‑(Me)PhSO2}-[dD]EG[Phe(3-F)]WE[Ahx]K(2Naphthoyl)-NH2 (Round II CPP; also called UBP095) [4-(Br)-2-(Me)PhSO2-dEGF(3F)WE-Ahx-K(CO(2-Naphth))-NH2] | 86.7 nM
Brosyl-[dD]EG[Phe(3-F)]WE[Ahx]K(2,4,6‑trimethylbenzoyl)-NH2 (Round II CPP; also called UBP091) [4-(Br)PhSO2-dEGF(3F)WE-Ahx-K(CO((2,4,6-Me3)Ph))-NH2] | 88.3 nM
Brosyl-[dD]EG[Phe(3-F)]WE[Ahx]K(2Naphthoyl)-NH2 (Round II CPP; also called UBP090) [4-(Br)PhSO2-dEGF(3F)WE-Ahx-K(CO(2-Naphth))-NH2] | 133 nM
Brosyl-[dD]EG[Phe(3-F)]WE[Ahx]K(Benzoyl(4-Br))-NH2 (Round II CPP; also called UBP093) [4-(Br)PhSO2-dEGF(3F)WE-Ahx-K(CO((4-Br)Ph))-NH2] | 106 nM
{Benzenesulfonyl(4-OMe)}-[dD]EG[Phe(3-F)]WE[Ahx]K([Ahx-Chol])-NH2 (X stands for Ahx; also called UBP036) [4-(MeO)PhSO2-dEGF(3F)WE-Ahx-K(Ahx-Chol)-NH2] | 19.3 nM
Brosyl-[dD]EG[Phe(3-F)]WE[Ahx]K(Benzoyl(4-Me))-NH2 (Round II CPP; also called UBP092) [4-(Br)PhSO2-dEGF(3F)WE-Ahx-K(CO((4-Me)Ph))-NH2] | 151 nM

The remaining lines, values ahead:

FP Assay / | Binder
40 nM | {Benzenesulfonyl(4-tBu)}-[dD]EG[Phe(3-F)]WE[Ahx]K(Benzoyl(4-Me))-NH2 (Round II CPP; also called UBP078) [4-(t-Bu)PhSO2-dEGF(3F)WE-Ahx-K(CO((4-Me)Ph))-NH2]
43.4 nM | {Benzenesulfonyl(4-tBu)}-[dD]EG[Phe(3-F)]WE[Ahx]K(2Naphthoyl)-NH2 (Round II CPP; also called UBP076) [4-(t-Bu)PhSO2-dEGF(3F)WE-Ahx-K(CO(2-Naphth))-NH2]
136 nM | {4‑(n-Pr)PhSO2}-[dD]EG[Phe(3-F)]WE[Ahx]K(2Naphthoyl)-NH2 (Round II CPP; also called UBP085) [4-(n-Pr)PhSO2-dEGF(3F)WE-Ahx-K(CO(2-Naphth))-NH2]
548 nM | {Benzenesulfonyl(4-OMe)}-[dD]EG[Phe(3-F)]WE[Ahx][dK][dK][dK][dK][dK][dK][dK][dK][dK]-NH2 (SMILES COc1ccc(S(=O)(=O)N[C@H](CC(=O)O)C(=O)N[C@@H](CCC(=O)O)C(=O)NCC(=O)N[C@@H](Cc2cccc(F)c2)C(=O)N[C@@H](Cc2c[nH]c3ccccc23)C(=O)N[C@@H](CCC(=O)O)C(=O)NCCCCCC(=O)N[C@H](CCCCN)C(=O)N[C@H](CCCCN)C(=O)N[C@H](CCCCN)C(=O)N[C@H](CCCCN)C(=O)N[C@H](CCCCN)C(=O)N[C@H](CCCCN)C(=O)N[C@H](CCCCN)C(=O)N[C@H](CCCCN)C(=O)N[C@H](CCCCN)C(N)=O)cc1, the sheet gives this poly-lysine compound the code UBP022; it is not the untailed UBP022 (1.m39, 5.m30, 6.m3)) [4-(MeO)PhSO2-dEGF(3F)WE-Ahx-k9-NH2]
36.5 nM | {4‑(i-Pr)PhSO2}-[dD]EG[Phe(3-F)]WE[Ahx]K(Benzoyl(4-Br))-NH2 (Round II CPP; also called UBP083) [4-(i-Pr)PhSO2-dEGF(3F)WE-Ahx-K(CO((4-Br)Ph))-NH2]
58.3 nM | {4‑(n-Pr)PhSO2}-[dD]EG[Phe(3-F)]WE[Ahx]K(Benzoyl(4-Me))-NH2 (Round II CPP; also called UBP087) [4-(n-Pr)PhSO2-dEGF(3F)WE-Ahx-K(CO((4-Me)Ph))-NH2]
40.9 nM | {Benzenesulfonyl(4-tBu)}-[dD]EG[Phe(3-F)]WE[Ahx]K(2,4,6‑trimethylbenzoyl)-NH2 (Round II CPP; also called UBP077) [4-(t-Bu)PhSO2-dEGF(3F)WE-Ahx-K(CO((2,4,6-Me3)Ph))-NH2]
40.8 nM | {Benzenesulfonyl(4-tBu)}-[dD]EG[Phe(3-F)]WE[Ahx]K(Benzoyl(4-Br))-NH2 (Round II CPP; also called UBP079) [4-(t-Bu)PhSO2-dEGF(3F)WE-Ahx-K(CO((4-Br)Ph))-NH2]
174 nM | {4‑(n-Pr)PhSO2}-[dD]EG[Phe(3-F)]WE[Ahx]K(Benzoyl(4-tBu))-NH2 (Round II CPP; also called UBP084) [4-(n-Pr)PhSO2-dEGF(3F)WE-Ahx-K(CO((4-tBu)Ph))-NH2]
56.1 nM | {4‑(i-Pr)PhSO2}-[dD]EG[Phe(3-F)]WE[Ahx]K(2,4,6‑trimethylbenzoyl)-NH2 (Round II CPP; also called UBP082) [4-(i-Pr)PhSO2-dEGF(3F)WE-Ahx-K(CO((2,4,6-Me3)Ph))-NH2]
87.8 nM | {Benzenesulfonyl(4-tBu)}-[dD]EG[Phe(3-F)]WE[Ahx]K(Benzoyl(4-tBu))-NH2 (Round II CPP; also called UBP075) [4-(t-Bu)PhSO2-dEGF(3F)WE-Ahx-K(CO((4-tBu)Ph))-NH2]
73 nM | {4‑(i-Pr)PhSO2}-[dD]EG[Phe(3-F)]WE[Ahx]K(Benzoyl(4-tBu))-NH2 (Round II CPP; also called UBP080) [4-(i-Pr)PhSO2-dEGF(3F)WE-Ahx-K(CO((4-tBu)Ph))-NH2]
29.4 nM | {4‑(n-Pr)PhSO2}-[dD]EG[Phe(3-F)]WE[Ahx]K(2,4,6‑trimethylbenzoyl)-NH2 (Round II CPP; also called UBP086) [4-(n-Pr)PhSO2-dEGF(3F)WE-Ahx-K(CO((2,4,6-Me3)Ph))-NH2]
7.66 nM | {4‑(i-Pr)PhSO2}-[dD]EG[Phe(3-F)]WE[Ahx]K(2Naphthoyl)-NH2 (Round II CPP; also called UBP081) [4-(i-Pr)PhSO2-dEGF(3F)WE-Ahx-K(CO(2-Naphth))-NH2]
39.6 nM | {4‑(n-Pr)PhSO2}-[dD]EG[Phe(3-F)]WE[Ahx]K(Benzoyl(4-Br))-NH2 (Round II CPP; also called UBP088) [4-(n-Pr)PhSO2-dEGF(3F)WE-Ahx-K(CO((4-Br)Ph))-NH2]

Reference: US20190106460A1 (published 2019)
